The record followed here is patent US20240132559.

One series deals with ZF16-MQ1 (synthetic) (UniProt P15840). The series can be described thus: cell_activity. The settings on record: LL2 cells.
In the next series the target is ZF17-MQ1 (synthetic) (UniProt P15840). The series can be described thus: cell_activity. The conditions noted are these: LL2 cells.
Chain of ZF17-MQ1 (synthetic) (P15840 other isoform, or with tags, fused parts or gaps): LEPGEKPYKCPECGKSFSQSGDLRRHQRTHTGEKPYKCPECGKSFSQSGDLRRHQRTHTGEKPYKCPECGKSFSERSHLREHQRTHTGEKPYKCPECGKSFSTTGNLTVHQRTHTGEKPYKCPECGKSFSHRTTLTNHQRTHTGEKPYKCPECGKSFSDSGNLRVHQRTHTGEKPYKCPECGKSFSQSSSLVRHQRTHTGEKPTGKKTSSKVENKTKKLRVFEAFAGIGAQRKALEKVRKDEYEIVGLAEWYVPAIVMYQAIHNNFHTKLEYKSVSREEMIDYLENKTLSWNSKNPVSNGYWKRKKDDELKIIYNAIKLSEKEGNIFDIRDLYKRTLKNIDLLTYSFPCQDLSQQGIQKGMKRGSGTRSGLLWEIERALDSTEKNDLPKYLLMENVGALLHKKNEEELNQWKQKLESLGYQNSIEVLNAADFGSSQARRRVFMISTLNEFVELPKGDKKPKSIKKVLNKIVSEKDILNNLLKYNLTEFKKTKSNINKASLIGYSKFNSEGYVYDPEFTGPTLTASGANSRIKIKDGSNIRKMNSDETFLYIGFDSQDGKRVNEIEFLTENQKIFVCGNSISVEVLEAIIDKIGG

Chain of ZF16-MQ1 (synthetic) (P15840 other isoform, or with tags, fused parts or gaps): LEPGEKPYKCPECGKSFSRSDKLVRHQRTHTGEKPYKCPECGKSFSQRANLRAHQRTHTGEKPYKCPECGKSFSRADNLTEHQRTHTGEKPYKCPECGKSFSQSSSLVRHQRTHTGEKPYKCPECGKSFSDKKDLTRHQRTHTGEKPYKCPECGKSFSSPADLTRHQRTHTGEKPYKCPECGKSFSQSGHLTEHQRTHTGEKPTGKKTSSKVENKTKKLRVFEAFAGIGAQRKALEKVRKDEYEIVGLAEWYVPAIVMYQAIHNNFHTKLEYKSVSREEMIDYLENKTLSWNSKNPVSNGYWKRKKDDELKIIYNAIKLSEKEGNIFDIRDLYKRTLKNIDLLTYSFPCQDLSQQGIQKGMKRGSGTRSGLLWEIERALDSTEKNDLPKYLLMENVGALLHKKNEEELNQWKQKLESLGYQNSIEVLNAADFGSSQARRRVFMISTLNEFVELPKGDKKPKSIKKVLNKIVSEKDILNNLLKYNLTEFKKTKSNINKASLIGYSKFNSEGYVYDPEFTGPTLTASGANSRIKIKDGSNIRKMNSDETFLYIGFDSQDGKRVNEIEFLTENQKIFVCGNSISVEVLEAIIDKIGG

As for mouse Myc genomic locus, the activity (% MYC mRNA reduction) was 74 with ZF16-MQ1 (synthetic) and greater than 99.9 in the series with ZF17-MQ1 (synthetic).
